For series [1], the target named is T1, Pur-alpha 56-287 (C272S) (human, UniProt Q00577 56-287, C272S).
T1 sequence: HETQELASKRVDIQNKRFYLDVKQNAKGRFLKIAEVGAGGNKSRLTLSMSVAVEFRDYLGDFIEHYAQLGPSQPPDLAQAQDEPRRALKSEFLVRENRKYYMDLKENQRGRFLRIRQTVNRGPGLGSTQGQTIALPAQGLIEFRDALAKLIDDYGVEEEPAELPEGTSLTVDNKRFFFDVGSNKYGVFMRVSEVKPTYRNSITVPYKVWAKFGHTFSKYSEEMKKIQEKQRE
Briefly: filter binding; replicates 207, 258; 2.5 mM MgCl2; 100 mM NaCl, 10 mM HEPES pH 8.0, 2.5 mM MgCl2, 1 mM DTT; 0.5 nM labeled oligo, 0-10 uM protein, 20 min, room temperature. The settings on record: protein: recombinant; tags: GST removed by protease (tag cleaved); chain copies: 2; label: 5'-32P; single strand.

The target of series [2] is T1, Pur-alpha 56-287 (C272S). Briefly: filter binding; protein 0-10 uM; 2.5 mM MgCl2; 100 mM NaCl, 10 mM HEPES pH 8.0, 2.5 mM MgCl2, 1 mM DTT; 0.5 nM labeled oligo, 0-10 uM protein, 20 min, room temperature. The settings on record: protein: recombinant; tags: GST removed by protease (tag cleaved); chain copies: 2; label: 5'-32P; single strand.
For series [3], the target named is T1, Pur-alpha 56-287 (C272S). Briefly: filter binding; replicates 491, 438, 306; 2.5 mM MgCl2; 100 mM NaCl, 10 mM HEPES pH 8.0, 2.5 mM MgCl2, 1 mM DTT; 0.5 nM labeled oligo, 0-10 uM protein, 20 min, room temperature. The settings on record: protein: recombinant; tags: GST removed by protease (tag cleaved); chain copies: 2; label: 5'-32P; single strand.
Series [4] deals with the molecule itself. Briefly: crystal structure; selenomethionine-substituted crystals grown at 4°C in 2.8 M sodium formate, protein 1.2 mg/mL, stoichiometric addition of the DNA oligomer hTel12 (not visible in the model); SAD, 1.9 Å.
Series [5] concerns the molecule itself. Briefly: crystal structure; native crystals grown at 21°C, hanging drop, protein 2.2 mg/ml, 100 mM HEPES (pH 7.2), 20% PEG 3350; molecular replacement, 2.2 Å.

Consider 5 molecules from publication PMC2954813, “Of Bits and Bugs — On the Use of Bioinformatics and a Bacterial Crystal Structure to Solve a Eukaryotic Repeat-Protein Structure” (PLoS ONE, 2010).

Residue numbers refer to the chain shown, from its start. Names and notes keep the numbering of the source.

On to GGAGGGGGAGGC (ssDNA) [JCVupTAR], for which the equilibrium dissociation constant (Kd) in the series with Pur-alpha 56-287 (C272S) [1] came to 233 ± 36 nM. As to CCTCCGCCTCCG (ssDNA) [Control], the binding result with Pur-alpha 56-287 (C272S) [2] was “no binding”. Take AGGGTTAGGGTT (ssDNA) [hTel12]: the Kd with Pur-alpha 56-287 (C272S) [3] came to 411 ± 95 nM.

B1: selenomethionine-substituted B. burgdorferi Pur-α 8–105 (L17M, F27M, I64M) (domain or fragment)
chain: ERGEVYSEKMFTESERTYFMNVKENRKGDYFLNIVESKRSPSGDFERHSIFVYEENMNEFESNLLKAIAVIKQKVSTGSVGSSARHNKGYGEYGERSK
modifications: selenomethionine-substituted (methionines introduced at positions 17, 27 and 64; no other methionines in this fragment)
notes: Expressed from the pGEX6p1 vector (BamHI/XhoI); Only amino acids 8 to 84 are visible in the electron density; also called SeMet; selenomethionine-derivatized protein; source: E. coli BL21, purified (glutathione column, protease cleavage, Q column, heparin column, size-exclusion chromatography)
On to B1, for which, in series [4], the “stoichiometry N” value worked out at 2.

B2: B. burgdorferi Pur-α 8–105 (domain or fragment, Borrelia burgdorferi B31, UniProt O51076-2 8-105, looked up)
chain: B1 chain with M10L, M20F, M57I
notes: Pur-α (hypothetical protein BB0047) of Borrelia burgdorferi B31, 127-amino acid gene product, amino acids 8 to 105; Expressed from the pGEX6p1 vector (BamHI/XhoI); also called native protein; BB0047 fragment; source: E. coli BL21, purified (glutathione column, protease cleavage, Q column, heparin column, size-exclusion chromatography)
With B2, the binding result in series [5] is on record as “binds”.
